Data published in patent publication US20260015434A1, “ANTIBODY MATERIALS AND METHODS TARGETING MICROBIAL POLYSACCHARIDES” (priority 2022, published 2026).
Residue numbers refer to the chain shown, from its start. In names and notes the source's numbering stands.

B1: TG10 W38A: TG10 HC W38A (SEQ ID NO: 47) with TG10 LC (SEQ ID NO: 12) (antibody, V domains shown)
VH: EVQLVESGGGLVQPGGSLRLSCAVSGFPFSSYAMSWVRQAPGKGLEWVANIKEDGSEKYYVDSVKGRFTISRDNAKNSLYLQMNSLRAEDTAVYYCATDPDVGLSDSWGQGTLVTVSS
VL: EIVLTQSPGTLSLSPGDRATHSCRASQSVSRSYLAWYQQKPGQTPRLFIYGASNRATGIPDRFSGSGSGTYFTLTISRLEPEDFAVYYCQQYDSAPDTFGQGTRLEIK
modifications: Site directed mutatation of TG10 HC Variable Region; TG10 Light Chain Variable Region
B2: TG10 D109K: TG10 HC D109K (SEQ ID NO: 48) with TG10 LC (SEQ ID NO: 12) (antibody, V domains shown)
VH: B1 VH with A33W, D101K
VL: B1 VL
modifications: Site directed mutatation of TG10 HC Variable Region; TG10 Light Chain Variable Region
B3: TG10 LC Y38A: TG10 HC (SEQ ID NO: 3) with TG10 LC Y38A (SEQ ID NO: 43) (antibody, V domains shown)
VH: B1 VH with A33W
VL: EIVLTQSPGTLSLSPGDRATHSCRASQSVSRSALAWYQQKPGQTPRLFIYGASNRATGIPDRFSGSGSGTYFTLTISRLEPEDFAVYYCQQYDSAPDTFGQGTRLEIKLC
modifications: TG10 Heavy Chain Variable Region; Site directed mutation of TG10 LC Variable Region
B4: TG10 D107A: TG10 HC D107A (SEQ ID NO: 41) with TG10 LC (SEQ ID NO: 12) (antibody, V domains shown)
VH: B1 VH with A33W, D99A
VL: B1 VL
modifications: Site directed mutation of TG10 HC Variable Region; TG10 Light Chain Variable Region
B5: TG10 E57A: TG10 HC E57A (SEQ ID NO: 37) with TG10 LC (SEQ ID NO: 12) (antibody, V domains shown)
VH: B1 VH with A33W, E53A
VL: B1 VL
modifications: Site directed mutation of TG10 HC Variable Region; TG10 Light Chain Variable Region
B6: TG10 D109A: TG10 HC D109A (SEQ ID NO: 42) with TG10 LC (SEQ ID NO: 12) (antibody, V domains shown)
VH: B1 VH with A33W, D101A
VL: B1 VL
modifications: Site directed mutatation of TG10 HC Variable Region; TG10 Light Chain Variable Region
B7: TG10 P108A: TG10 HC P108A (SEQ ID NO: 36) with TG10 LC (SEQ ID NO: 12) (antibody, V domains shown)
VH: B1 VH with A33W, P100A
VL: B1 VL
modifications: Site directed mutation of TG10 HC Variable Region; TG10 Light Chain Variable Region
B8: TG10 LC Y55A: TG10 HC (SEQ ID NO: 3) with TG10 LC Y55A (SEQ ID NO: 40) (antibody, V domains shown)
VH: B1 VH with A33W
VL: B1 VL with Y50A
modifications: TG10 Heavy Chain Variable Region; Site directed mutation of TG10 LC Variable Region
B9: 285 × TG: 4488285 HC (SEQ ID NO: 46) with TG10 LC (SEQ ID NO: 12) (antibody, V domains shown)
VH: B1 VH with V24A, P28T, A33W, E53Q, T98R, D101Y, V102M, S105I, S107Y
VL: B1 VL
modifications: Based on an antibody sequence.; TG10 Light Chain Variable Region
B10: 120 × TG: 1467120 HC (SEQ ID NO: 45) with TG10 LC (SEQ ID NO: 12) (antibody, V domains shown)
VH: B1 VH with E1Q, V24A, P28T, A33W, E53Q, T98R, D101E, V102G, S105P, S107Y
VL: B1 VL
modifications: Based on an antibody sequence.; TG10 Light Chain Variable Region
B11: 729 × TG: 15729 HC (SEQ ID NO: 44) with TG10 LC (SEQ ID NO: 12) (antibody, V domains shown)
VH: B1 VH with V24A, P28T, A33W, E53Q, T98R, V102G, G103R, L104I, S105F, S107Y
VL: B1 VL
modifications: Based on an antibody sequence.; TG10 Light Chain Variable Region
B12: TG10 Y37A: TG10 HC Y37A (SEQ ID NO: 31) with TG10 LC (SEQ ID NO: 12) (antibody, V domains shown)
VH: B1 VH with Y32A, A33W
VL: B1 VL
modifications: Site directed mutation of TG10 HC Variable Region; TG10 Light Chain Variable Region
B13: TG10 Y66A: TG10 HC Y66A (SEQ ID NO: 38) with TG10 LC (SEQ ID NO: 12) (antibody, V domains shown)
VH: B1 VH with A33W, Y59A
VL: B1 VL
modifications: Site directed mutation of TG10 HC Variable Region; TG10 Light Chain Variable Region
B14: ADI-45379: Original clone from screen; HC SEQ ID NO: 1, LC SEQ ID NO: 2 (antibody, listed as Homo sapiens, V domains shown)
VH: B1 VH with V5L, A33W
VL: B1 VL with I2T, V3T, G9A
B15: TG10 V110R: TG10 HC V110R (SEQ ID NO: 39) with TG10 LC (SEQ ID NO: 12) (antibody, V domains shown)
VH: B1 VH with A33W, V102R
VL: B1 VL
modifications: Site directed mutation of TG10 HC Variable Region; TG10 Light Chain Variable Region
B16: TG10 D116A: TG10 HC D116A (SEQ ID NO: 34) with TG10 LC (SEQ ID NO: 12) (antibody, V domains shown)
VH: B1 VH with A33W, D106A
VL: B1 VL
modifications: Site directed mutation of TG10 HC Variable Region; TG10 Light Chain Variable Region

What follows are molecules tested on PNAG conjugates on the array (dPNAG, PNAG and intermediate levels of deacetylation) (assay: Neoglycoprotein (glycan) microarray binding, 816-component array). Conditions: single point mutations.
Method: (§1) Neoglycoprotein (NGP) microarray fabrication was performed as follows. Several NGP microarrays were constructed as previously described. Two large arrays (8 duplicate arrays per slide) composed of 815 and 870 neoglycoproteins, glycoproteins, glycopeptide conjugates, and controls were constructed and used for the experiments in this report. Additionally, a PNAG-focused array (16 duplicates per slide) with 49 array components was fabricated and used to determine apparent KD values. Array component parent stocks were diluted to 125-200 μg/mL into print buffer (1×PBS buffer with 2.5% (v/v) glycerol, 0.0005% (v/v) Triton-X 100, 0.0005 μg/mL soluble print dye 0.05 μg/mL Atto 532 (Sigma 06699). Formulated components were printed in duplicate onto 2D-Epoxy functionalized glass slides (Poly-An #104-00-221) or SuperEpoxy 2 microarray slides (ArrayIt) using an Arrayit NanoPrint LM60 arrayer at 60% humidity. Following the print, slides were scanned in a microarray fluorescence scanner (Innopsys, InnoScan 1100 AL) to validate that array components were successfully deposited onto the slide surface. Binding profiles for a representative set of lectins and antibodies were used as QC for each printed microarray batch. The printed NGP microarrays were stored under vacuum at −20° C.
(§2) Antibody selectivity and apparent KD were determined using a NGP microarray. A pre-assay scan was performed to control for missing features. Selectivity and affinity of most mAbs were measured on the full array. A focused array was used to acquire an apparent KD measurement. A slide module (8 well for full array and 16-well for focused array) was mounted onto each slide and blocking buffer (3% BSA in PBS, pH 7.4) was applied to each well of the array. Blocking was performed overnight at 4° C. mAbs were serial diluted in binding buffer (1% BSA in PBST, pH 7.4). Following the block, wells were washed 4× with wash buffer (PBST, PBS with 0.05% tween-20). Primary mAb incubation was performed for 2.5 hours at 37° C. The wells were washed 5× with wash buffer. A CY3-labeled secondary antibody specific for the Fc portion of human IgG was diluted 500 fold into binding buffer and added to each array well (Jackson ImmunoResearch, 109-165-098). Secondary mAb incubation was performed for 1.5 hours at 37° C. Wells were washed 5× with wash buffer. Slides were removed from the slide module and submerged in wash buffer for 5 minutes. Washed slides were dried by centrifugation @ 1000×g in a centrifuge quipped with a swing bucket rotor. Fluorescent scans were obtained at multiple PMT values to maximize dynamic range. Raw data was analyzed using GenePix 7.0 software as previously described. Selectivity profiles and apparent KD curves were plotted in excel and Graphpad Prism. Apparent Kos were determined using one-site specific binding algorithm in Graphpad Prism.

Molecule	function of TG10 variant (binding to PNAG conjugates on the array)
B1	functionally dead
B2	functionally dead
B3	functionally dead
B4	functionally dead

The molecules below were run on PNAG 0 (fully deacetylated glucosamine pentasaccharide conjugate) (assay: Glycan microarray binding / apparent KD). Conditions: fully deacetylated PNAG conjugate PNAG 0.
Method: as §1, §2

Molecule	effect of single point mutation on binding between TG10 and PNAG 0
B1	completely removed binding
B2	completely removed binding
B5	greatly reduce
B3	completely removed binding
B6	greatly reduce
B4	completely removed binding

Each molecule was assayed on PNAG conjugates on the array (dPNAG, PNAG and intermediate levels of deacetylation) (assay: Neoglycoprotein (glycan) microarray binding, 816-component array). Conditions: ability to bind both dPNAG and PNAG and intermediate levels of deacetylation.

Molecule	PNAG Binding on Array
B1	No
B7	Yes
B8	Yes
B9	No
B2	No
B10	No
B5	Yes
B11	No
B12	Yes
B13	Yes
B14	Yes
B15	Yes
B16	Yes
